{"source": "patent US20190161555A1", "about": "(ALLIGATOR BIOSCIENCE, published 2019)", "key": {"murine OX40": {"biological_target": "T1, murine OX40 (murine, UniProt P47741 20-211, limits assumed)", "T1 construct": "also called mouse OX40", "T1 sequence (looked up)": "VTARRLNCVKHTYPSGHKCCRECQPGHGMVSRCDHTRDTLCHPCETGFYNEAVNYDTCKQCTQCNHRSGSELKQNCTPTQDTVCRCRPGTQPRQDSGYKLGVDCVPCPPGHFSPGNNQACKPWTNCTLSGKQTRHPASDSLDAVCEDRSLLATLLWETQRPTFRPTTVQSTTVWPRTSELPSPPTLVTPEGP", "assay": "ELISA"}, "CD40 (Ancell)": {"biological_target": "CD40 (Ancell) (UniProt P25942 21-193, limits assumed)", "sequence (P25942 21-193 limits assumed)": "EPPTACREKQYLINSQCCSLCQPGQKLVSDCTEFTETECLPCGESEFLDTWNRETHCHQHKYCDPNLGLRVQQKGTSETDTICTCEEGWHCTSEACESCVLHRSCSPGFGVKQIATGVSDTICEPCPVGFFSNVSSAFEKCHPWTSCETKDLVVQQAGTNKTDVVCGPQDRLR", "assay": "ELISA, CD40 coated", "protocol": "(§1) ELISA plates were coated with human OX40 (R&D Systems, 3388-OX), CD40 (Ancell), or CD137 (R&D Systems) at 0.1 or 0.5 μg/ml. The ELISA plates were washed with PBST and then blocked with PBST+2% BSA for 1 h at room temperature and then washed again with PBST. The antibodies were added in dilution series to the ELISA plates for 1 h at room temperature and then washed with PBST. Binding was detected using goat anti human kappa light chain HRP, incubated for 1 h at room temperature. SuperSignal Pico Luminescent was used as substrate and luminescence was measured using Fluostar Optima."}, "[1]": {"biological_target": "Macaca mulatta OX40 on HEK cells (Macaca mulatta; human)", "assay": "flow cytometry, macOX40-HEK cells; ends of the 95% confidence interval", "protocol": "For the assay, the transfected cells were incubated with the test antibodies and controls for 30 min at 4° C. and then detected with a-huIgG-PE (Jackson Immunoresearch) 30 min 4° C. Cells were analyzed by flow cytometry with FACS Verse (BD Biosciences)."}, "[2]": {"biological_target": "T2, Construct 84: full length OX40 (human, UniProt P43489 29-277)", "T2 construct": "whole, on cells", "T2 sequence (looked up)": "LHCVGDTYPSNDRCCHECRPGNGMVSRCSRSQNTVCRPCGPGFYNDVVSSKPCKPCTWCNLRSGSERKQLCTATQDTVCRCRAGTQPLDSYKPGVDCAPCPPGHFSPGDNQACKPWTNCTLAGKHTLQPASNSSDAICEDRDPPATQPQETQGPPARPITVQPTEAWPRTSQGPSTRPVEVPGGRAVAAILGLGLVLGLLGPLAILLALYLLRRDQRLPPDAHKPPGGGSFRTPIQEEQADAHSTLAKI", "assay": "flow cytometry, 293-F cells transfected with the construct", "protocol": "The transfected cells were incubated with human OX40 antibodies, human OX40L (hOX40L, RnD Systems), mouse OX40L (mOX40L, RnD Systems) and controls for 30 min 4° C. and then detected with a-huIgG-PE (Jackson Immunoresearch) 30 min 4° C. Cells were analyzed with FACS Verse (BD Biosciences). Binding to the different chimeric constructs were calculated as relative (mean fluorescence intensity) MFI compared to the binding of the isotype control."}, "[3]": {"biological_target": "T3, Human OX40 (R&D Systems, 3388-OX) (human, UniProt P43489 29-216)", "T3 construct": "bought; also called OX40-Fc; Human OX40 (R&D systems, #3358_OX)", "T3 sequence (looked up)": "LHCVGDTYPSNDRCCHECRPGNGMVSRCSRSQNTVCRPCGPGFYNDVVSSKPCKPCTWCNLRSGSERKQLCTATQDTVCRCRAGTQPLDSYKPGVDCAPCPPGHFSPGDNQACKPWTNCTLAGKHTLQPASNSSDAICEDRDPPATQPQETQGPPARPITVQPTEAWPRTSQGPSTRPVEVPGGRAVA", "assay": "ELISA, plates coated with human OX40, IgG", "protocol": "as §1"}, "[4]": {"biological_target": "T3, Human OX40 (R&D Systems, 3388-OX)", "assay": "SPR Biacore, human OX40 amine-coupled on CM5, antibody injected, 1:1 Langmuir", "protocol": "Human OX40 (R&D systems, #3358_OX) was immobilized to the Biacore™ sensor chip, CM5, using conventional amine coupling. The tested antibodies and controls (serially diluted 1/3 or 1/2 100-2 nM) were analyzed for binding in HBS-P (GE, #BR-1003-68) at a flow rate of […]. The association was followed for 3 minutes and the dissociation for 20 minutes. Regeneration was performed twice using 50 mM NaOH for 60 seconds. The kinetic parameters and the affinity constants were calculated using 1:1 Langmuir model with drifting baseline. […] The kinetic parameters and the affinity constants were calculated using BIAevaluation 4.1 software."}, "CD137 (R&D Systems)": {"biological_target": "CD137 (R&D Systems) (UniProt Q07011 24-186, limits assumed)", "sequence (Q07011 24-186 limits assumed)": "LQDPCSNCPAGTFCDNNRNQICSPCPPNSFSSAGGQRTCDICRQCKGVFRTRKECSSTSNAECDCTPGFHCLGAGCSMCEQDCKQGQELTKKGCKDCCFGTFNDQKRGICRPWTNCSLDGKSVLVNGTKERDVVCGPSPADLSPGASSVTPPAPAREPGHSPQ", "assay": "ELISA, CD137 coated", "protocol": "as §1"}, "[5]": {"biological_target": "T4, human OX40 overexpressed on CHO cells (human, UniProt P43489 29-214; P25942 194-277)", "T4 construct": "extracellular domain;domain: transmembrane and intracellular part; also called hOX40; huOX40 (CHO)", "T4 sequence (looked up)": "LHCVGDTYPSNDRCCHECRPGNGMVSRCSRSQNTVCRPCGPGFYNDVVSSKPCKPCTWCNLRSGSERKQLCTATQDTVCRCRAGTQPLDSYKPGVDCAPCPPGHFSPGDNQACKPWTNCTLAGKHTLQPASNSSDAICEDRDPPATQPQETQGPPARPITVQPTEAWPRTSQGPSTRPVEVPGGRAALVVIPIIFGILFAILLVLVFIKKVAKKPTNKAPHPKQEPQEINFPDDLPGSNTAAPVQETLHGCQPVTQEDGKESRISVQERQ", "assay": "flow cytometry, cells with human OX40; ends of the 95% confidence interval"}}}
{"binder": "1168/1135 (antibody, V domains shown, OX40 antibody, tested as IgG) VH: EVQLLESGGGLVQPGGSLRLSCAASGFTFSGSSMSWVRQAPGKGLEWVSSISYYGGYTYYADSVKGRFTISRDNSKNTLYLQMNSLRAEDTAVYYCARYFPHYYFDYWGQGTLVTVSS VL: not shown", "values": [{"measurement": "binding result", "setting": "murine OX40", "value": "no binding"}, {"measurement": "binding result", "setting": "CD40 (Ancell)", "value": "no binding"}, {"measurement": "EC50", "setting": "[1]", "value": "0.0905 to 0.194", "unit": "µg/mL"}, {"measurement": "relative MFI", "setting": "[2]", "value": 29.6, "unit": "fold over isotype control"}, {"measurement": "EC50", "setting": "[3]", "value": "< 1", "unit": "nM"}, {"measurement": "Kd", "setting": "[4]", "value": 0.327, "unit": "nM"}, {"measurement": "koff", "setting": "[4]", "value": 0.000169, "unit": "s⁻¹"}, {"measurement": "kon", "setting": "[4]", "value": 518000, "unit": "M⁻¹ s⁻¹"}, {"measurement": "binding result", "setting": "CD137 (R&D Systems)", "value": "no binding"}, {"measurement": "EC50", "setting": "[5]", "value": "0.0636 to 0.131", "unit": "µg/mL"}]}
{"binder": "1490/1135 (antibody, V domains shown, OX40 antibody, tested as IgG) VH: EVQLLESGGGLVQPGGSLRLSCAASGFTFSSYAMSWVRQAPGKGLEWVSGISYYGGYTYYADSVKGRFTISRDNSKNTLYLQMNSLRAEDTAVYYCARYYPHHYIDYWGQGTLVTVSS VL: not shown", "values": [{"measurement": "binding result", "setting": "murine OX40", "value": "no binding"}, {"measurement": "binding result", "setting": "CD40 (Ancell)", "value": "no binding"}, {"measurement": "binding result", "setting": "CD137 (R&D Systems)", "value": "no binding"}]}
{"binder": "1542/1135 (antibody, V domains shown, OX40 antibody, tested as IgG) VH: EVQLLESGGGLVQPGGSLRLSCAASGFTFGSSSMYWVRQAPGKGLEWVSGIGYYSYSTSYADSVKGRFTISRDNSKNTLYLQMNSLRAEDTAVYYCARGYPHHYFDYWGQGTLVTVSS VL: not shown", "values": [{"measurement": "binding result", "setting": "murine OX40", "value": "no binding"}, {"measurement": "binding result", "setting": "CD40 (Ancell)", "value": "no binding"}, {"measurement": "EC50", "setting": "[1]", "value": "0.722 to 1.41", "unit": "µg/mL"}, {"measurement": "relative MFI", "setting": "[2]", "value": 29.4, "unit": "fold over isotype control"}, {"measurement": "EC50", "setting": "[3]", "value": "< 1", "unit": "nM"}, {"measurement": "Kd", "setting": "[4]", "value": 0.463, "unit": "nM"}, {"measurement": "koff", "setting": "[4]", "value": 0.0001, "unit": "s⁻¹"}, {"measurement": "kon", "setting": "[4]", "value": 216000, "unit": "M⁻¹ s⁻¹"}, {"measurement": "binding result", "setting": "CD137 (R&D Systems)", "value": "no binding"}, {"measurement": "EC50", "setting": "[5]", "value": "0.322 to 0.552", "unit": "µg/mL"}]}
{"binder": "1170/1171 (antibody, V domains shown, OX40 antibody, tested as IgG) VH: EVQLLESGGGLVQPGGSLRLSCAASGFTFGGYYMSWVRQAPGKGLEWVSYIPGSGGSTYYADSVKGRFTISRDNSKNTLYLQMNSLRAEDTAVYYCARYDYYWMDYWGQGTLVTVSS VL: DIQMTQSPSSLSASVGDRVTITCRASQSISSYLNWYQQKPGKAPKLLIYAASSLQSGVPSRFSGSGSGTDFTLTISSLQPEDFATYYCQQGHGSYPHTFGQGTKLEIK", "values": [{"measurement": "binding result", "setting": "murine OX40", "value": "no binding"}, {"measurement": "binding result", "setting": "CD40 (Ancell)", "value": "no binding"}, {"measurement": "binding result", "setting": "CD137 (R&D Systems)", "value": "no binding"}]}
{"binder": "1482/1483 (antibody, V domains shown, OX40 antibody, tested as IgG) VH: EVQLLESGGGLVQPGGSLRLSCAASGFTFSSYAMSWVRQAPGKGLEWVSYISYYSGYTYYADSVKGRFTISRDNSKNTLYLQMNSLRAEDTAVYYCARGYGYLDYWGQGTLVTVSS VL: DIQMTQSPSSLSASVGDRVTITCRASQSISSYLNWYQQKPGKAPKLLIYAASSLQSGVPSRFSGSGSGTDFTLTISSLQPEDFATYYCQQYGSLLTFGQGTKLEIK", "values": [{"measurement": "binding result", "setting": "murine OX40", "value": "no binding"}, {"measurement": "binding result", "setting": "CD40 (Ancell)", "value": "no binding"}, {"measurement": "EC50", "setting": "[1]", "value": "0.157 to 0.312", "unit": "µg/mL"}, {"measurement": "relative MFI", "setting": "[2]", "value": 24.9, "unit": "fold over isotype control"}, {"measurement": "EC50", "setting": "[3]", "value": "< 1", "unit": "nM"}, {"measurement": "Kd", "setting": "[4]", "value": 0.753, "unit": "nM"}, {"measurement": "koff", "setting": "[4]", "value": 0.000584, "unit": "s⁻¹"}, {"measurement": "kon", "setting": "[4]", "value": 776000, "unit": "M⁻¹ s⁻¹"}, {"measurement": "binding result", "setting": "CD137 (R&D Systems)", "value": "no binding"}, {"measurement": "EC50", "setting": "[5]", "value": "0.082 to 0.182", "unit": "µg/mL"}]}
{"binder": "1526/1527 (antibody, V domains shown, OX40 antibody, tested as IgG) VH: EVQLLESGGGLVQPGGSLRLSCAASGFTFSGYSMYWVRQAPGKGLEWVSGIGYSGYGTYYADSVKGRFTISRDNSKNTLYLQMNSLRAEDTAVYYCARYYFHDYAAYSLDYWGQGTLVTVSS VL: DIQMTQSPSSLSASVGDRVTITCRASQSISSYLNWYQQKPGKAPKLLIYAASSLQSGVPSRFSGSGSGTDFTLTISSLQPEDFATYYCQQYGSDSLLTFGQGTKLEIK", "values": [{"measurement": "binding result", "setting": "murine OX40", "value": "no binding"}, {"measurement": "binding result", "setting": "CD40 (Ancell)", "value": "no binding"}, {"measurement": "EC50", "setting": "[1]", "value": "0.292 to 0.589", "unit": "µg/mL"}, {"measurement": "relative MFI", "setting": "[2]", "value": 21.4, "unit": "fold over isotype control"}, {"measurement": "EC50", "setting": "[3]", "value": "< 1", "unit": "nM"}, {"measurement": "Kd", "setting": "[4]", "value": 0.43, "unit": "nM"}, {"measurement": "koff", "setting": "[4]", "value": 0.000187, "unit": "s⁻¹"}, {"measurement": "kon", "setting": "[4]", "value": 435000, "unit": "M⁻¹ s⁻¹"}, {"measurement": "binding result", "setting": "CD137 (R&D Systems)", "value": "no binding"}, {"measurement": "EC50", "setting": "[5]", "value": "0.172 to 0.429", "unit": "µg/mL"}]}
{"binder": "1514/1515 (antibody, V domains shown, OX40 antibody, tested as IgG) VH: EVQLLESGGGLVQPGGSLRLSCAASGFTFGYYYMSWVRQAPGKGLEWVSGISSYGSYTYYADSVKGRFTISRDNSKNTLYLQMNSLRAEDTAVYYCARSGYSNWANSFDYWGQGTLVTVSS VL: DIQMTQSPSSLSASVGDRVTITCRASQSISSYLNWYQQKPGKAPKLLIYAASSLQSGVPSRFSGSGSGTDFTLTISSLQPEDFATYYCQQGDYTLFTFGQGTKLEIK", "values": [{"measurement": "binding result", "setting": "murine OX40", "value": "no binding"}, {"measurement": "binding result", "setting": "CD40 (Ancell)", "value": "no binding"}, {"measurement": "binding result", "setting": "CD137 (R&D Systems)", "value": "no binding"}]}
